The source of these data is patent US20250270302A1.

For assay [1], the target named is human Gremlin-1 (huGREM1), recombinant protein (human) (UniProt O60565). The assay is described as follows: cell-based or functional assay.
Assay [2] has the same target. The assay is described as follows: binding ELISA on huGREM1, hybridoma clone selection. For orientation: An ELISA detects its analyte on a solid surface through an enzyme-linked reagent.

Bounds are passed on as bounds.

Chain of UniProt O60565 (O60565 25-184 limits assumed): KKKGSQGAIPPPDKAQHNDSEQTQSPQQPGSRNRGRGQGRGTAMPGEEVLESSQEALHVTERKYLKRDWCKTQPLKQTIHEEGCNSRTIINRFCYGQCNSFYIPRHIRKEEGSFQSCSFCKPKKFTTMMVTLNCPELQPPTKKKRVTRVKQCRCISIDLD

B1: anti-Gremlin-1 antibody 14-D10-2 (antibody, from a related filing, IgG2b, V domains shown)
VH: EVQLQQSGPELVKPGASVKISCKASGYSFTGYYMHWVKQSHGNILDWIGYFFPYNGFSNCNQKFKGKATLTVDKSSSTAYMELRSLTSEDSAVYYCARGGLGRGYFDVWGTGTTVTVSS
VL: DIQMTQSPSYLSVSLGGRVTITCKASDHINNWLAWYQQKPGNAPRLLISGATSLETGVPSRFSGSGSGKDYTLSITSLQTEDVATYYCQQYWSSPRTFGGGTKLEIK
For B1, in assay [1], the EC50, in vitro Gremlin-1 neutralization assay (ALP activity in ATDC5 cells) is 26.4 nM. For the same molecule, in assay [2], the OD 492 nm was over 0.9 OD 492 nm.
